According to paper PMC2603313, “Direct Inhibition of GSK3β by the Phosphorylated Cytoplasmic Domain of LRP6 in Wnt/β-Catenin Signaling” (PLoS ONE, 2008):
Changes are numbered by the printed parent chain. In names and notes the source's numbering stands. Ends that are not written are not given here.

B1: GST-fused LRP6 miniCL (residues 1470–1510 of human LRP6), phosphorylated by GSK3β and CK1 (domain or fragment, UniProt O75581 1470-1510, looked up)
chain: SSSSSSTKGTYFPAILNPPPSPATERSHYTMEFGYSSNSPS
modifications: also: GST-fused, end not given here, phosphorylated by GSK3β and CK1ε, sites not given here
notes: LRP6, human, intracellular fragment miniCL, residues 1470-1510 (Ser/Thr rich cluster and first PPPSPxS motif); also called phosphorylated GST-miniCL; GST-miniCL phos; source: E. coli, purified (Glutathione-agarose, HiTrapQ), then phosphorylated in vitro with recombinant GSK3β and CK1ε
B2: GST-fused LRP6 miniCLMT (residues 1470–1510 of human LRP6, S1490A), not phosphorylated (domain or fragment, UniProt O75581 1470-1510, looked up)
chain: B1 chain with S21A
modifications: also: GST fusion (GST left off)
notes: LRP6, human, intracellular fragment miniCL, residues 1470-1510, with Ser1490 replaced by Ala; also called GST-miniCLMT; source: E. coli, purified (Glutathione-agarose, HiTrapQ)
B3: GST-fused LRP6 miniCLMT (residues 1470–1510 of human LRP6, S1490A), phosphorylated by GSK3β and CK1 (domain or fragment, UniProt O75581 1470-1510, looked up)
chain: B1 chain with S21A
modifications: also: GST-fused, end not given here, phosphorylated in vitro by GSK3β and CK1ε, sites not given here
notes: LRP6, human, intracellular fragment miniCL, residues 1470-1510, with Ser1490 replaced by Ala; also called phosphorylated GST-miniCLMT; GST-miniCLMT phos; source: E. coli, purified (Glutathione-agarose, HiTrapQ), then phosphorylated in vitro with recombinant GSK3β and CK1ε

Legend:
[1] = target: T1, GSK3β (Mus musculus, UniProt Q9WV60); experiment: In vitro GSK3β activity assay with synthetic peptides (phosphorylation of primed β-catenin N-terminal fragment); type: biochemical; conditions: at 100 µM; primed β-catenin N-terminal fragment 7 µM, 1 mM ATP, pH 8.0, 30 min at 37°C; 4–7 independent experiments
T1 construct: The catalytic domains of mouse GSK3β (residues 27–393) and CK1ε (residues 1–319) were expressed and purified; made in house
Excerpt: We synthesized one dually-phosphorylated (NPPPpSPApTERSH, where pS or pT designates a phosphorylated Ser or Thr residue), two singly-phosphorylated (NPPPSPApTERSH and NPPPp[…]) and one non-phosphorylated ([…]) peptides derived from the first PPPSPxS motif of LRP6 (Fig. 1A). To measure the GSK3β activity toward β-catenin in vitro, we utilized a β-catenin N-terminal fragment (residues 1–133), whose Ser45 was prephosphorylated by CK1, as a substrate (Ha et al., 2004). Each synthetic peptide was added to a reaction mixture containing the purified GSK3β enzyme and the substrate β-catenin N-terminal fragment. The GSK3β activity was determined through measurement of the intensity of the supershifted (retarded) β-catenin bands (Fig. S3), which represent the phosphorylated product species (Fig. S4), on an SDS-polyacrylamide gel (Figs. S3, S4, S5, S6, S7). […] This corresponds well with the results of Zeng et al., who reported that the first Ser residue in the PPPSPxS motif has a more important role in Wnt/β-catenin signaling than the second Ser residue.
The catalytic domains of mouse GSK3β (residues 27–393) and CK1ε (residues 1–319) were expressed and purified as previously described. The N-terminal region (residues 1–133) of β-catenin was expressed in Escherichia coli as a GST-fusion protein with a TEV protease cleavage site and then purified using Glutathione-agarose. Subsequently, the GST tag was cleaved using recombinant TEV protease and was removed by repeated HiTrapQ anion-exchange chromatography. The N-terminal region of β-catenin was then phosphorylated by incubation with the catalytic domain of CK1ε (0.28 mg/ml) at 37°C for 20 min in 50 mM Tris buffer (pH 8.0) containing 10 mM MgCl2, 10 mM 2-mercaptoethanol, and 2 mM phenylmethylsulfonylfluoride. The phosphorylated β-catenin fragment was then further purified using HiTrapQ anion-exchange chromatography to remove the CK1ε enzyme. […]

[2] = target: T2, catalytic domain of mouse GSK3β (residues 27–393) (mouse, UniProt Q9WV60 27-393); experiment: far-Western, overlay or dot blot; GST-fused LRP6 fragments (with or without prior treatment with GSK3β and CK1) run on SDS-PAGE and transferred to PVDF; membrane incubated 3 h with 1 µg/ml GSK3β in 5% skim milk in TBST (20 mM Tris pH 7.6, 137 mM NaCl, 0.05% Tween 20); bound GSK3β detected with anti-GSK3β antibody; conditions: both partners purified
T2 construct: GSK3β (glycogen synthase kinase 3 beta), mouse, catalytic domain, residues 27-393; also called recombinant GSK3β catalytic domain; source: recombinant, expressed and purified as previously described [32]

Inhibitory effect on GSK3β activity toward β-catenin [1] | binding result [2] | Molecule
only a marginal inhibitory effect | – | NPPPSPApTERSH [PPPSPx(p)S, singly-phosphorylated peptide (second Ser/Thr) derived from the first PPPSPxS motif of LRP6]
– | binds | B1
– | binds | B2
– | binds | B3
